Measured values from publication doi:10.1101/2025.04.25.650293.

Target: ELMSAN1 (human (endogenous in 143B)) (UniProt Q6PJG2)
Experiment: affinity purification with mass spectrometry

Sequence of UniProt Q6PJG2 (Q6PJG2 whole entry): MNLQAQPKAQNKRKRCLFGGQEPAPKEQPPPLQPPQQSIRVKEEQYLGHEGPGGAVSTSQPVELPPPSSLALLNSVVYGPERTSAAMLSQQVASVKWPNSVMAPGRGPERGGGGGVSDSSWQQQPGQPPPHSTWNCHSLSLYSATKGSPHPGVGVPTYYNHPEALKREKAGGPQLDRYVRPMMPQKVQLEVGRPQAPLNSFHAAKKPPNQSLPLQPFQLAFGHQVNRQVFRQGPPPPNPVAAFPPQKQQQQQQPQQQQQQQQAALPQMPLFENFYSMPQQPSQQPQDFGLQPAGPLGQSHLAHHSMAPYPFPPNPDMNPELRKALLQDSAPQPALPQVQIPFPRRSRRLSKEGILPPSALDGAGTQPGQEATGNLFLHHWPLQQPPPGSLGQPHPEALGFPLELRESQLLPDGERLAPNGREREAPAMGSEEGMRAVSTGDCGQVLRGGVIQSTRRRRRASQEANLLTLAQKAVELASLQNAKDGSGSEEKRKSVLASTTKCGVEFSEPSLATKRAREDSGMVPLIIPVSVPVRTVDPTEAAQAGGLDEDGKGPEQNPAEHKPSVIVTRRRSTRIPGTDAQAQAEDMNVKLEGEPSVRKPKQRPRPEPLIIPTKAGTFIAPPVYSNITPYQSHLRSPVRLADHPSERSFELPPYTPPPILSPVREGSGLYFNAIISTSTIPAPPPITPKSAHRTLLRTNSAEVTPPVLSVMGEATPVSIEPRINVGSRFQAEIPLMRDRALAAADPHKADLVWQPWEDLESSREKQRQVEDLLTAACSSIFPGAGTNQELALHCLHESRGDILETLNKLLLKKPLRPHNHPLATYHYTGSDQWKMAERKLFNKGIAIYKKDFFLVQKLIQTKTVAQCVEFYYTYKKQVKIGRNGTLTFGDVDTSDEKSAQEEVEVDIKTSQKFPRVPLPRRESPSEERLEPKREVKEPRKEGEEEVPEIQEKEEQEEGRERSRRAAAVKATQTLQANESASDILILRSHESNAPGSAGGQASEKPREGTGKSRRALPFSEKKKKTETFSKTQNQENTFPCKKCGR

- fold decrease in binding with ISX9 against DMSO: > 100 fold
Substance: PDHX (from UniProt O00330 54-501) (natural protein)
